Measured values taken from US20210063414A1, “METHODS FOR PREVENTING AND/OR TREATING BONE LOSS CONDITIONS BY MODULATING IRISIN” (Dana-Farber Cancer Institute, Inc., priority 2018, published 2021).

Columns and labels:
Test in all cases: Crosslinking/co-immunoprecipitation/mass spectrometry (TMT quantitative proteomics) to identify irisin receptors
Assay type in all cases: binding
[1] = target: T1, MLO-Y4 cell surface proteins (Mus musculus, UniProt O70404); conditions: co-precipitated protein Vamp8 (VAMP8_MOUSE)
T1 construct: endogenous in cells; host or cells: MLO-Y4
T1 sequence (O70404 1-101): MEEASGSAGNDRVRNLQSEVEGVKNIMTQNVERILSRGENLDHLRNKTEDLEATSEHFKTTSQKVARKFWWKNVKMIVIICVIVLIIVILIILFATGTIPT
In short: (§1)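 Mouse MLO-Y4 cells were switched to serum-free FreeStyle medium for 4 h, chilled, then exposed to 10 nM His-tagged irisin (or adipsin as control) for 20 min. Cells were crosslinked with 1.5 mM DTSSP (30 min, ice), and bound proteins were pulled down on Ni-NTA and eluted with 250 mM imidazole. Eluates were separated by SDS-PAGE, trypsin-digested in gel, TMT 6-plex labelled and quantified by MS3-based LC-MS/MS on an Orbitrap Fusion Lumos.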

[2] = target: T2, MLO-Y4 cell surface proteins (Mus musculus, UniProt Q8R1I1); conditions: co-precipitated protein Uqcr10 (QCR9_MOUSE)
T2 construct: endogenous in cells; host or cells: MLO-Y4
T2 sequence (Q8R1I1 1-64): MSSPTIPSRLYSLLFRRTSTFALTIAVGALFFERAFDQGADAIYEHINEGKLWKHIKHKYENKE
In short: as §1

[3] = target: T3, MLO-Y4 cell surface proteins (Mus musculus, UniProt Q9D3P1); conditions: co-precipitated protein Tchhl1 (TCHL1_MOUSE)
T3 construct: endogenous in cells; host or cells: MLO-Y4
T3 sequence (Q9D3P1 1-638): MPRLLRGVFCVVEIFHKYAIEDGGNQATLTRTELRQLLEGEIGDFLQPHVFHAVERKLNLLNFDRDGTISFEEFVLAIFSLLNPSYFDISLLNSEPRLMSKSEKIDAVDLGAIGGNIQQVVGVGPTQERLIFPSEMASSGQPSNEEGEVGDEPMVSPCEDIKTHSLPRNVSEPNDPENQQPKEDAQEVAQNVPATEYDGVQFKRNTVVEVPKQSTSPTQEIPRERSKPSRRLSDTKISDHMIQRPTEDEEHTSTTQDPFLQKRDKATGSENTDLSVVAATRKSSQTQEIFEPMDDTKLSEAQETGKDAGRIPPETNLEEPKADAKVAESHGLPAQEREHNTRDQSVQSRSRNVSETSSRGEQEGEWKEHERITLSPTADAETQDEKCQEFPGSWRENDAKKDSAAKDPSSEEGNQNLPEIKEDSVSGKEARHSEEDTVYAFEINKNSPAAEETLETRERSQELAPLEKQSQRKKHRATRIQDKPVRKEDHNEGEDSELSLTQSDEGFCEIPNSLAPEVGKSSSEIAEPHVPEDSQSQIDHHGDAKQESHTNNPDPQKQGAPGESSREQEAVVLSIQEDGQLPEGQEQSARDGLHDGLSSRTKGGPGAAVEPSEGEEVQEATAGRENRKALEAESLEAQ
In short: as §1

B1: irisin: secreted cleaved form of FNDC5; recombinant human/mouse irisin with C-terminal his tag produced in HEK293 cells (protein)
chain: DSPSAPVNVTVRHLKANSAVVSWDVLEDEVVIGFAISQQKKDVRMLRFIQEVNTTTRSCALWDLEEDTEYIVHVQAISIQGQSPASEPVLFKTPREAEKMASKNKDEVTMKE
modifications: left off: small tags and cut ends
notes: secreted cleaved form of FNDC5; recombinant human/mouse irisin with C-terminal his tag produced in HEK293 cells
- TMT signal-to-noise ratio [1]: 169.775
- irisin/adipsin TMT signal-to-noise ratio [1]: 0.566
- TMT signal-to-noise ratio [2]: 125.477
- irisin/adipsin TMT signal-to-noise ratio [2]: 0.516
- TMT signal-to-noise ratio [3]: 23.5307
- irisin/adipsin TMT signal-to-noise ratio [3]: 0.013
